Experimental data published in patent publication US8691225B2, “Antibodies against the ectodomain of ErbB3 and uses thereof” (Merrimack Pharmaceuticals, Inc., priority 2007, dated 2014).

Experiments:
MCF-7 cells = assay: VEGF secretion assay (VEGF ELISA); assay type: cell-based, human; conditions: untreated and HRG treated MCF-7
Excerpt: (§1) In contrast, HRG is able to induce more than a doubling of VEGF secretion in MCF-7 and T47D cells.

COLO-357 cells = assay: VEGF secretion assay (VEGF ELISA); assay type: cell-based, human; conditions: untreated and HRG treated COLO-357
Excerpt: as §1

[1] = biological target: T1, ErbB2/3 complex in AdrR cells (Homo sapiens, UniProt P21860); assay: ErbB2-ErbB3 protein complex formation (immunoprecipitation, blot); assay type: cell-based; conditions: 250 nM Ab #6, 10 nM HRG
T1 construct: host or cells: AdrR ovarian cancer cells
Procedure: The cells are lysed in 25 mM Tris, pH+7.5, 150 mM NaCl, 1 mM EDTA, 1.0% Triton X-100, 1.0% CHAPS, 10% v/v glycerol, containing 0.2 mM PMSF, 50 mTU/mL aprotinin, and 100 uM leupeptin, and the crude lysate are centrifuged briefly to remove insoluble material. Supernatant is transferred to a new EPPENDORF tube, and anti-ErbB3 antibody (Santa Cruz sc-285) is added at 1:500 dilution. Supernatants are incubated overnight with gentle shaking at 4 C. 60 ul of Immobilized Protein A/G agarose beads (Pierce, Rockford, Ill., #20421) is first washed with 1× PBS. The cell lysate-antibody mixture is added to the PBS washed beads, and incubated for 2 hours with gentle shaking at 4° C. The immunoprecipitates are then washed with ice-cold lysis buffer 3 times, resuspended in 30 ul of 2× SDS sample buffer, heat denatured at 95° C. for 7 minutes and run on 4-12% Bis-Tris Gels. SDS-PAGE and electro-transferred to PVDF membrane in Tri-Glycine buffer with 10% MeOH. […] The signal is detected using goat anti-rabbit IRDye800® infrared fluorescent dye-conjugated secondary antibody at 1:5000 (2 ul) in 10 ml of blocking buffer (Li-Cor Biosciences, #927-40000).

renal (ACHN) xenograft = assay: xenograft tumor growth in nude mice; assay type: in vivo, mouse; conditions: 600 ug Q3d versus 300 ug
[2] = test system: ErbB3 phosphorylation in OVCAR 5; assay: ErbB3 phosphorylation ELISA in ovarian tumor cell line; assay type: cell-based, human; conditions: IgG2 isotype
Procedure: (§2) All ELISA reagents for the total and phospho-ErbB3 ELISAs are purchased from R&D Systems as DUOSET kits. 96-well NUNC MAXISORB plates are coated with 50 uL of an antibody and incubated overnight at room temperature. Next morning, plates are washed 3 times with […] in the BIOTEK plate washer with Dulbecco's phosphate buffered saline without calcium or magnesium (PBS) with added Tween detergent (PBST) (0.05% Tween-20). […] The plates are washed 3 times with […] in the BIOTEK plate washer with PBST (0.05% Tween-20). 50 μL of cell lysates and standards diluted in 50% Lysis buffer and 1% BSA are used in duplicates for further processing. Samples are incubated for 2 hrs at 4° C. on a plate shaker and washed as before. About 50 μl of a detection antibody diluted in 2% BSA, PBST is added and incubated for about 1 hr at room temperature. For phosphor-ErbB3, the detection antibody is directly conjugated to horseradish peroxidase (HRP) and incubated for 2 hrs at room temperature. The plate is washed as before. About 50 μl of Streptavidin-HRP is added and incubate for 30 min at room temperature (except for pErbB3). The plates are washed as before. About 50 μL of SUPERSIGNAL ELISA Pico (Thermo Scientific) substrate is added and the plate is read using a FUSION plate reader. The data are analyzed using EXCEL. […]

[3] = test system: ErbB3 phosphorylation in OVCAR 8; assay: as above; assay type: cell-based, human; conditions: IgG2 isotype
Procedure: as §2

OVCAR8 spheroids = assay: spheroid growth assay; assay type: cell-based, human; conditions: OVCAR8, 25 μg/ml on days 1 and 4
Procedure: Subconfluent cells are trypsinized, counted, and resuspended in filtered medium. The cell concentration is adjusted to 100,000 cells/ml, and one 20 ul drop (containing 2000 cells) is added to each ring on the underside of the lid of a 96-well plate. The lids with these hanging droplets are then placed back on the original 96-well plate, which contained 100 ul of PBS in each well to maintain moisture. Four days after initial plating, the hanging droplets containing the spheroids are replated into new 96-well plates. This replating involves transferring the lid containing the hanging droplets to a fresh 1% agarose/RPMI-coated 96-well plate that contains 150 ul of medium per well. The plate and lid are then centrifuged together at 500 rpm for 1 minute to transfer the spheroid-containing drops from the lids to the wells. Plates are then further incubated at 37° C. in a humidified CO2 incubator. Spheroids are photographed in an inverted phase contrast microscope. A micrometer scale is also photographed at the same magnification to determine spheroid size. The diameter of the spheroids is determined using METAMORPH image analysis software (MDS Analytical Technologies).
Multicellular tumor spheroids are generated as before.

[4] = biological target: T2, heregulin binding to ErbB3 on MALME-3M cells (Homo sapiens, UniProt P21860); assay: biotinylated heregulin binding to MALME3M cells by FACS; assay type: cell-based; conditions: 5 μM antibody, 20 nM heregulin EGF
T2 construct: ErbB3 expressed on MALME-3M melanoma cells; host or cells: MALME-3M melanoma cells
Procedure: After 30 minutes, 50 μl of 40 nM biotinylated heregulin EGF is added to the cells and incubated for another 10 minutes on ice. This yields a final concentration of 5 μM antibody and 20 nM heregulin EGF. Cells are then washed twice with 500 μl BD stain buffer and incubated with 100 μl of a 1:200 dilution of streptavidin-PE (PE=phycoerythrin) (Invitrogen) in BD stain buffer for 45 minutes. Finally, cells are washed twice, resuspended in 300 μl of BD stain buffer and analyzed in a FACSCALIBUR flow cytometer. As a positive control, 1×10^5 MALME3M cells are incubated with 20 nM heregulin EGF for 10 minutes on ice, washed twice and incubated with a 1:200 dilution of streptavidin-PE for 45 minutes. In order to assess background staining from the streptavidin-PE conjugate, 1×10^5 MALME3M cells are incubated with 100 μl of a 1:200 dilution of streptavidin-PE only for 45 minutes.

B1: Ab #6: human anti-ErbB3 antibody from Fab-phage library, CDRs SEQ ID NOs:7-12; used as IgG1 and IgG2 isotypes; in phase I trials as MM-121 (antibody, V domains shown)
VH: EVQLLESGGGLVQPGGSLRLSCAASGFTFSHYVMAWVRQAPGKGLEWVSSISSSGGWTLYADSVKGRFTISRDNSKNTLYLQMNSLRAEDTAVYYCTRGLKMATIFDYWGQGTLVTVSS
VL: QSALTQPASVSGSPGQSITISCTGTSSDVGSYNVVSWYQQHPGKAPKLIIYEVSQRPSGVSNRFSGSKSGNTASLTISGLQTEDEADYYCCSYAGSSIFVIFGGGTKVTVL
MCF-7 cells
  inhibition of VEGF secretion: potent inhibitory effect at high levels in all three cell lines
COLO-357 cells
  inhibition of VEGF secretion: potent inhibitory effect at high levels in all three cell lines with the highest being in COLO-357
[1]
  inhibition of HRG stimulated ErbB2/3 complex formation: completely inhibit HRG stimulated ErbB2/3 complex formation
Renal (ACHN) xenograft
  inhibition of tumor growth: further elevated
[2]
  inhibition of ErbB3 phosphorylation: inhibited ErbB3 phosphorylation
[3]
  inhibition of ErbB3 phosphorylation: inhibited ErbB3 phosphorylation
OVCAR8 spheroids
  decrease in spheroid area: 30-40%
[4]
  inhibition of heregulin binding to ErbB3: able to inhibit heregulin binding to ErbB3
